Test results from patent US6447783 (YEDA RESEARCH AND DEVELOPMENT, dated 2002).
Values belong to the binder of their own block, whether it stands above or below them.

What was measured:
[1] = molecular target: T1, Recombinant mouse FGF9 (fibroblast growth factor 9) (mouse); assay: 125I-FGF9 binding to FGFR3 transfected CHO-KI cells at 4 C, in the presence of 1 mg/ml heparin
[2] = molecular target: T1, Recombinant mouse FGF9 (fibroblast …); assay: 125I-FGF9 binding to FGFR3 transfected CHO 745 cells at 4 C, in the presence of 1 mg/ml heparin
[3] = molecular target: T1, Recombinant mouse FGF9 (fibroblast …); assay: FGF9 immobilised on heparin-sepharose, bound receptor-AP measured by alkaline phosphatase activity

Kd [1]: 0.06 nM | Kd [2]: 0.1 nM
B1: Full length mouse FGFR3 expressed in CHO cells (wild type KI and heparan-sulfate deficient 745) (receptor)
chain: EPPGPEQRVVRRAAEVPGPEPSQQEQVAFGSGDTVELSCHPPGGAPTGPTVWAKDGTGLVASHRILVGPQRLQVLNASHEDAGVYSCQHRLTRRVLCHFSVRVTDAPSSGDDEDGEDVAEDTGAPYWTRPERMDKKLLAVPAANTVRFRCPAAGNPTPSISWLKNGKEFRGEHRIGGIKLRHQQWSLVMESVVPSDRGNYTCVVENKFGSIRQTYTLDVLERSPHRPILQAGLPANQTAILGSDVEFHCKVYSDAQPHIQWLKHVEVNGSKVGPDGTPYVTVLKTAGANTTDKELEVLSLHNVTFEDAGEYTCLAGNSIGFSHHSAWLVVLPAEEELMETDEAGSVYAGVLSYGVVFFLFILVVAAVILCRLRSPPKKGLGSPTVHKVSRFPLKRQVSLESNSSMNSNTPLVRIARLSSGEGPVLANVSELELPADPKWELSRTRLTLGKPLGEGCFGQVVMAEAIGIDKDRTAKPVTVAVKMLKDDATDKDLSDLVSEMEMMKMIGKHKNIINLLGACTQGGPLYVLVEYAAKGNLREFLRARRPPGMDYSFDACRLPEEQLTCKDLVSCAYQVARGMEYLASQKCIHRDLAARNVLVTEDNVMKIADFGLARDVHNLDYYKKTTNGRLPVKWMAPEALFDRVYTHQSDVWSFGVLLWEIFTPGGPSPYPGIPVEELFKLLKEGHRMDKPASCTHDLYMIMRECWHAVPSQRPTFKQLVEDLDRILTVTSTDEYLDLSVPFEQYSPGGQDTPSSSSSGDDSVFTHDLLPPGPPSNGGPRT
notes: whole, on cells; also called FGFR3 transfected CHO-KI cells

binding result [3]: no binding
B2: Soluble extracellular domain of murine FGFR1 coupled to human placental alkaline phosphatase (receptor)
chain: RPAPTLPEQAQPWGVPVEVESLLVHPGDLLQLRCRLRDDVQSINWLRDGVQLVESNRTRITGEEVEVRDSIPADSGLYACVTSSPSGSDTTYFSVNVSDALPSSEDDDDDDDSSSEEKETDNTKPNRRPVAPYWTSPEKMEKKLHAVPAAKTVKFKCPSSGTPNPTLRWLKNGKEFKPDHRIGGYKVRYATWSIIMDSVVPSDKGNYTCIVENEYGSINHTYQLDVVERSPHRPILQAGLPANKTVALGSNVEFMCKVYSDPQPHIQWLKHIEVNGSKIGPDNLPYVQILKTAGVNTTDKEMEVLHLRNVSFEDAGEYTCLAGNSIGLSHHSAWLTVLEALEERPAVMTSPLYLE
notes: extracellular domain; Collected from conditioned medium of transfected NIH 3T3 cells; also called FGFR1 fusion protein; FGFR-alkaline phosphatase fusion protein; not shown: human placental alkaline phosphatase
